Test results published in patent US20240383982A1 (Genmab, published 2024).

Columns and labels:
[1] = target: T1, human B7H4, full length, on cells (human, UniProt Q7Z7D3 25-282); assay: flow cytometry on SK-BR3 tumor cells [panel SK-BR3 cells]
T1 construct: Uniprot Q7Z7D3; Used for transfected HEK cells and for the B7H4-expressing human tumor cell lines (endogenous B7H4); also called VTCN1
T1 sequence: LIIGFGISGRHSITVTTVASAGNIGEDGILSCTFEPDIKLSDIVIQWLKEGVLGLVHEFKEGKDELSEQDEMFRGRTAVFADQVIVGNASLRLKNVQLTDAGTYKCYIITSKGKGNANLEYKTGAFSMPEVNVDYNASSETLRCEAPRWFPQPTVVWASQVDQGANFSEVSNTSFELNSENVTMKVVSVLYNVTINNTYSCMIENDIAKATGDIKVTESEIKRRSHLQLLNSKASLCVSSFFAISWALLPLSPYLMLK
Protocol: (§1) Cells (3×10⁴ cells/well) were incubated in polystyrene 96-well round-bottom plates (Greiner bio-one, cat. no. 650180) with serial dilutions of antibodies (ranging from 0.000458 to 30 μg/mL in 4-fold dilution steps) in 100 μL PBS/0.1% BSA/0.02% azide (staining buffer) at 4° C. for 30 min. Experiments were performed in technical duplicate. After washing twice in staining buffer, cells were incubated in 50 μL secondary antibody at 4° C. for 30 min. As a secondary antibody, R-Phycoerythrin (PE)-conjugated goat-anti-human IgG F(ab′)₂ (1:500 in FACS buffer; Jackson ImmunoResearch Laboratories, Inc., West Grove, PA, cat. no. 109-116-098), was used. Cells were washed twice in staining buffer, re-suspended in 30 μL FACS buffer containing Topro-3 (1:10,000 dilution) and analyzed on an iQue Screener (Intellicyt Corporation, USA). Binding curves were analyzed using non-linear regression (sigmoidal dose-response with variable slope) using GraphPad Prism V7.02 software (GraphPad Software, San Diego, CA, USA).
Binding was analyzed by flow cytometry as described above.

[2] = target: T2, rabbit (Oryctolagus cuniculus) B7H4, full length, on HEK-293F cells (rabbit, UniProt Q7Z7D3 25-282 (human entry)); assay: flow cytometry, HEK-293F cells transiently transfected with rabbit B7H4, PE anti-human IgG F(ab')2 [panel Rabbit B7H4]
T2 construct: Uniprot G1TQE8; also called rabbit B7H4
T2 chain: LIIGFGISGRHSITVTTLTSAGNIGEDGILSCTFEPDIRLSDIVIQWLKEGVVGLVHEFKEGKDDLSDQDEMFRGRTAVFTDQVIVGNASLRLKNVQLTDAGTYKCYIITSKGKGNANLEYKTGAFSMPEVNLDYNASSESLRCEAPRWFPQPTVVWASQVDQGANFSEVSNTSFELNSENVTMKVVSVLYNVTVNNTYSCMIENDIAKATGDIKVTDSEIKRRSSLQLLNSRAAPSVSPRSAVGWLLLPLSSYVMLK
Protocol: as §1

[3] = target: T3, pig (Sus scrofa) B7H4, full length, on HEK-293F cells (pig, UniProt Q7Z7D3 26-282 (human entry)); assay: flow cytometry, HEK-293F cells transfected with pig B7H4 [panel Pig B7H4]
T3 construct: Uniprot F1SAY4; also called pig B7H4
T3 chain: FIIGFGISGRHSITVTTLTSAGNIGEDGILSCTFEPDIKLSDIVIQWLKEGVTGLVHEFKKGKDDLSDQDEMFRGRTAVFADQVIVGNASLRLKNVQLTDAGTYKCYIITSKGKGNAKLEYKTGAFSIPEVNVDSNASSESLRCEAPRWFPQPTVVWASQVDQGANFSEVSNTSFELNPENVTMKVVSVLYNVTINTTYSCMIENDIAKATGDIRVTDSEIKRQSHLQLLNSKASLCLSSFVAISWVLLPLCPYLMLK
Protocol: as §1

[4] = target: T4, rat (Rattus norvegicus) B7H4, full length, on HEK-293F cells (rat, UniProt Q501W4 25-257); assay: flow cytometry, HEK-293F cells transfected with rat B7H4 [panel Rat B7H4]
T4 construct: Uniprot Q501W4; also called rat B7H4
T4 sequence: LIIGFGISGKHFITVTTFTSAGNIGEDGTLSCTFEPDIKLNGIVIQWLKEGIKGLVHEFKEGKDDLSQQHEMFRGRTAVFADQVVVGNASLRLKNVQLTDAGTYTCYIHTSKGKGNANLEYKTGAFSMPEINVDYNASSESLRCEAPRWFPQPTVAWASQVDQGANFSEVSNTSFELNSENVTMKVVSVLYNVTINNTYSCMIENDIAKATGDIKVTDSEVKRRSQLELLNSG
Protocol: as §1

B1: bsIgG1-huCD3-H101G-FEALxB7H4-C1-N52S-FEAR (bispecific antibody)
heavy 1: not shown
light 1: not shown
heavy 2: QVQLQQWGAGLLKPSETLSLTCAVYGGSFSGYYWSWIRQPPGKGLEWIGEISHSGSTNYNPSLKSRVTISIDTSKNQFSLKLTSVTAADTAVFYCARGLFNWNFDSWGQGTLVTVSSASTKGPSVFPLAPSSKSTSGGTAALGCLVKDYFPEPVTVSWNSGALTSGVHTFPAVLQSSGLYSLSSVVTVPSSSLGTQTYICNVNHKPSNTKVDKRVEPKSCDKTHTCPPCPAPEFEGGPSVFLFPPKPKDTLMISRTPEVTCVVVAVSHEDPEVKFNWYVDGVEVHNAKTKPREEQYNSTYRVVSVLTVLHQDWLNGKEYKCKVSNKALPAPIEKTISKAKGQPREPQVYTLPPSREEMTKNQVSLTCLVKGFYPSDIAVEWESNGQPENNYKTTPPVLDSDGSFFLYSRLTVDKSRWQQGNVFSCSVMHEALHNHYTQKSLSLSPGK
light 2: DIQMTQSPSSLSASVGDRVTITCRASQGIRNDLGWYQQKPGKAPKRLIYGASSLQSGVPSRFSGSGSGTEFTLTISSLQPEDFATYYCLQHNSYPRTFGQGTTVEIKRTVAAPSVFIFPPSDEQLKSGTASVVCLLNNFYPREAKVQWKVDNALQSGNSQESVTEQDSKDSTYSLSSTLTLSKADYEKHKVYACEVTHQGLSSPVTKSFNRGEC
notes: also called bslgG1-huCD3-H101G-FEALxB7H4-C1-N52S-FEAR; BslgG1-huCD3-H101G-FEALxB7H4-C1-N52S-FEAR
[1]
  EC50 (read off the curve): ~1 µg/mL
[2]
  binding result: binds

B2: IgG1-B7H4-C1-N52S-FEAR (antibody, V domains shown)
VH: QVQLQQWGAGLLKPSETLSLTCAVYGGSFSGYYWSWIRQPPGKGLEWIGEISHSGSTNYNPSLKSRVTISIDTSKNQFSLKLTSVTAADTAVFYCARGLFNWNFDSWGQGTLVTVSS
VL: DIQMTQSPSSLSASVGDRVTITCRASQGIRNDLGWYQQKPGKAPKRLIYGASSLQSGVPSRFSGSGSGTEFTLTISSLQPEDFATYYCLQHNSYPRTFGQGTTVEIKR
notes: Full length human IgG1 with L234F, L235E, D265A, K409R (FEAR) heavy chain constant region and kappa light chain; bivalent, monospecific; also called IgG1-B7H4-C1-052S-FEAR
[2]
  EC50 (read off the curve): ~0.3 µg/mL

B3: IgG1-B7H4-C5-FEAR (antibody, V domains shown)
VH: QLQLQESGPGLVKPSETLSLTCTVSGGSIKSGSYYWGWIRQPPGKGLEWIGNIYYSGSTYYNPSLRSRVTISVDTSKNQFSLKLSSVTAADTAVYYCAREGSYPNQFDPWGQGTLVTVSS
VL: EIVMTQSPATLSVSPGERATLSCRASQSVSSNLAWYQQKPGQAPRLLIYGASTRATGIPARFSGSGSGTEFTLTISSLQSEDFAVYYCQQYHSFPFTFGGGTKVEIKR
notes: Full length IgG1 FEAR, kappa; variable domains from US20190085080A1
[3]
  binding result: binds
[4]
  binding result: binds
